We go through 18 molecules from patent US20220281990A1 (MERRIMACK PHARMACEUTICALS, published 2022).

Numbering of substitutions follows the chain as printed.

Experiment [1] addresses T1, Human TNFR2 expressed on cells (CHO-hTNFR2 cells) (human, UniProt P20333 23-461).
T1 construct: also called CHO cells overexpressing human TNFR2; human TNFR2 reporter cells (HEK293)
T1 sequence: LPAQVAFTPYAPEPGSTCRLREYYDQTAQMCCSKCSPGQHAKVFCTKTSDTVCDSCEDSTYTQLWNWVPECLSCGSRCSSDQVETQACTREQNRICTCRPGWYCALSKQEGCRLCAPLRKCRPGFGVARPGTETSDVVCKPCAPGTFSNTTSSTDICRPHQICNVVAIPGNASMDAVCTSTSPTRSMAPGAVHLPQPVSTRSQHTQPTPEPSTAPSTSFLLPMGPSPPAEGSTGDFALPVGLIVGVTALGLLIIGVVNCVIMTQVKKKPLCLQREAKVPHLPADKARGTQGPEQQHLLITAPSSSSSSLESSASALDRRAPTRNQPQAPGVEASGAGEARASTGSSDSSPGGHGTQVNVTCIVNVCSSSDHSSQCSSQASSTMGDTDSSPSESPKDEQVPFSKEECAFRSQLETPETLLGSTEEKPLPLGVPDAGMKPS
Kind of experiment: flow cytometry; soluble scFv inhibiting TNF (1 nM) binding to CHO-hTNFR2 cells (FIG. 3). Background: Flow cytometry measures light scatter and fluorescence of single cells or particles in a stream.

For experiment [2], the target named is T1, Human TNFR2 expressed on cells …. Kind of experiment: flow cytometry, titration of soluble scFv (up to 300 nM) on CHO-hTNFR2 cells; one site binding non-linear fit.
Experiment [3] has as its target T2, recombinant human TNFR2-hFc protein (human, UniProt P20333 23-257).
T2 construct: also called hTNFR2-Fc; human TNFR2-Fc; not shown: human Fc
T2 sequence: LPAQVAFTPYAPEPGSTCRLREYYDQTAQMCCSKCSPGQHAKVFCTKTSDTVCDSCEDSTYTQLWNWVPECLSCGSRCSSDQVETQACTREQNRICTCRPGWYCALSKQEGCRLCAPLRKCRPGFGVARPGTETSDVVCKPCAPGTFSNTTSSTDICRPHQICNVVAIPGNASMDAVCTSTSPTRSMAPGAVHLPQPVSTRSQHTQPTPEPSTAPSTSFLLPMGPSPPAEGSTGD
Kind of experiment: flow cytometry; hTNFR2-Fc binding to scFv displayed on yeast; one site binding fit (FIG. 4).

Experiment [4] deals with T1, Human TNFR2 expressed on cells …. Kind of experiment: flow cytometry; soluble scFv inhibiting TNF (1 nM) binding to CHO-hTNFR2 cells (FIGS. 5A-5B).
Experiment [5] concerns the target T2, recombinant human TNFR2-hFc protein. The experiment in a line: flow cytometry; TNFR2-Fc binding to scFv displayed on yeast (FIGS. 6A-6C).
The target is the same in experiment [6]. Kind of experiment: flow cytometry; hTNFR2-Fc binding to scFv displayed on yeast; one site binding fit (FIG. 6B).
For experiment [7], the target named is T1, Human TNFR2 expressed on cells …. The experiment in a line: flow cytometry; soluble scFv inhibiting TNF (1 nM) binding to CHO-hTNFR2 cells (FIG. 7).
The target of experiment [8] is T2, recombinant human TNFR2-hFc protein. The experiment in a line: flow cytometry; hTNFR2-Fc binding to scFv displayed on yeast; one site binding fit (FIG. 6C).
The target is the same in experiment [9]. The experiment in a line: flow cytometry; hTNFR2-Fc binding to scFv displayed on yeast; one site binding fit (FIG. 6A).

B1: UC7 (9-1B5) scFv (scFv)
scFv: QVQLVQSGAEVKKPGSSVKVSCKASGDTFSSYGVSWVRQAPGQGLEWMGRIVPVFGIANYAQKFQGRVTITADESTSTAYMELSSLRSEDTAVYYCARQSPYVTYSSYYFDYWGQGTLVTVSSASSGGSTSGSGKPGSGEGSSGSAREIVLTQSPGTLSLSPGERATLSCRASQSVSNNFLAWYQQKPGQAPRLLIYDASTRATGIPDRFSGSGSGTDFTLTISRLEPEDFAVYYCQQYGSWPITFGQGTKVEIKR
notes: Soluble scFv
In general, IC50 refers to the concentration at which inhibition is half-maximal. By Kd is commonly meant the equilibrium constant for the complex coming apart. Turning to B1, the IC50 in experiment [1] amounted to 25.6 nM. The same molecule displayed a Kd in experiment [2] of 48.9 nM.

B2: UC6 (9-1A6) scFv (scFv)
scFv: QVQLVQSGAEVKKPGSSVKVSCKASGDSFNNFGISWVRQAPGQGLEWMGGIVPVLGIATYAQKFQGRVTITADESTSTAYMELSSLRSEDTAVYYCARGSAWYDGSFQYWGQGTLVTVSSASSGGSTSGSGKPGSGEGSSGSAREIVLTQSPGTLSLSPGERATLSCRASQSVSSTFLAWYQQKPGQAPRLLIYDASTRATGIPDRFSGSDSGTDFTLTISRLEPEDFAVYYCQQYDSWPFTFGQGTKVEIKR
notes: Soluble scFv
In experiment [1], B2 returned an IC50 of 69.7 nM. This molecule also yielded a Kd in experiment [2] of 42 nM.

B3: UC2 (S4-2 1D10) scFv (scFv)
scFv: QVQLLESGGGLVQPGGSLRLSCAASGFTFSTYAMSWVRQAPGKGLEWVSIISDGGDATFYADSVKGRFTISRDNSKNTLYLQMNSLRAEDTAVYYCARDGTSAAAFDSWGQGTLVTVSSASSGGSTSGSGKPGSGEGSSGSARDIQMTQSPSSLSASVGDRVTITCQASQDITNFLNWYQQKPGKAPKLLIYDASTLQTGVPSRFSGSGSGTDFTFTISSLQPEDIATYYCQQSDSYPITFGQGTKVEIKR
As to B3, the Kd in experiment [3] was found to be 42.8 nM; in [2] it was 14.4 nM. Further, in [4], the IC50 amounted to 39.6 nM.

B4: UC2.3.10 (S4-2 1D10-1G9-1G2) scFv (scFv)
scFv: B3 scFv with C22Y, V37I, F59V, G100R
As for B4, the “fold higher affinity (vs parental scFv)” value in experiment [5] came to 10 fold. Moreover, the Kd in experiment [6] was found to be 0.63 nM.

B5: UC2.3.3 (S4-2 1D10-1G9-1F10) scFv (scFv)
scFv: B3 scFv with V37I, F59V, S75N, K76R
notes: also called UC2.3.3 (monomer)
Take B5: the “fold higher affinity (vs parental scFv)” value in experiment [5] was found to be 10 fold. In experiment [6], the Kd was 1.35 nM. The molecule also displayed an IC50 in experiment [7] of 3.94 nM.

B6: UC2.3.9 (S4-2 1D10-1G9-1F12) scFv (scFv)
scFv: B3 scFv with V37I, F59V, S75N, K76R, Q167H
Consider B6, for which the “fold higher affinity (vs parental scFv)” value in experiment [5] came out at 10 fold. Moreover, the Kd in experiment [6] stood at 1.79 nM.

B7: UC2.3.11 (S4-2 1D10-1G9-1G3) scFv (scFv)
scFv: B3 scFv with A24V, V37I, F59V, C96W, S121N
For the molecule B7, the “fold higher affinity (vs parental scFv)” value in experiment [5] is 10 fold. Further, the Kd in [6] is 1.52 nM.

B8: UC2.3.14 (S4-2 1D10-1G9-1H11) scFv (scFv)
scFv: B3 scFv with C22Y, V37I, G42R, F59V, G100R
As to B8, in experiment [5], the “fold higher affinity (vs parental scFv)” value stood at 10 fold. Moreover, the Kd in experiment [8] was 0.65 nM.

B9: UC2.3.13 (S4-2 1D10-1G9-1G11) scFv (scFv)
scFv: B3 scFv with G8V, A24V, V37I, A57V, F59V, G100R, T116S, V117D, A142S, T215N
With B9, in experiment [5], the “fold higher affinity (vs parental scFv)” value is 10 fold. Also, the Kd in [8] was 0.87 nM.

B10: UC2.3.3 scFv (dimer) (scFv)
scFv: B3 scFv with V37I, F59V, S75N, K76R
notes: also called UC2.3.3 (dimer)
The molecule B10 showed an IC50 in [7] of 1.72 nM.

B11: UC2.3.15 (S4-2 1D10-1G9-1H12) scFv (scFv)
scFv: B3 scFv with A24V, V37I, F59V, C96W, S121N
B11: in experiment [5], the “fold higher affinity (vs parental scFv)” value came out at 10 fold. Besides, the Kd in [8] turned out to be 0.78 nM.

B12: UC2.3.12 (S4-2 1D10-1G9-1H1) scFv (scFv)
scFv: B3 scFv with G16D, V37I, F59V, S75N, K76R, D213N
With B12, the “fold higher affinity (vs parental scFv)” value in experiment [5] turned out to be 10 fold. For the same molecule, in [6], the Kd was 1.98 nM.

B13: UC 8 (9-2A4) scFv (scFv)
scFv: QVQLVQSGAEVKKPGSSVKVSCKASGDTFSNYGFSWVRQAPGQGLEWMGGIVPVFGIATYAQKFQGRVTITADESTSTAYMELSSLRSEDTAVYYCARDYSYYPDDPRYFEYWGQGTLVTVSSASSGGSTSGSGKPGSGEGSSGSAREIVLTQSPGTLSLSPGERATLSCRASQSVSSTFLAWYQQKPGQAPRLLIYAASSRATGIPDRFSGSGSGTDFTLTISRLEPEDFAVYYCQQYGSWPLTFGQGTKVEIKR
notes: Soluble scFv
Consider B13, for which the IC50 in experiment [1] was 21.5 nM. In [2], this molecule displayed a Kd of 13.4 nM.

B14: UC3 (S4-2 1E5) scFv (scFv)
scFv: QVQLLESGGGLVQPGGSLRLSCAASGFSFSSYAMSWVRQAPGKGLEWVSGISAGGGETFYADSVKGRFTISRDNSKNTLYLQMNSLRAEDTAVYYCARVHPISYGFDIWGQGTLVTVSSASSGGSTSGSGKPGSGEGSSGSARDIQMTQSPSSLSASVGDRVTITCQASQDIKKYLNWYQQKPGKAPKLLIYDASTLQTGVPSRFSGSGSGTDFTFTISSLQPEDIATYYCQQSDNTPVTFGQGTKVEIKR
notes: Soluble scFv
In [1], B14 returned an IC50 of 110 nM. In experiment [2], this molecule showed a Kd of 19.3 nM.

B15: UC1 (S4-2 1B5) scFv (scFv)
scFv: QVQLLESGGGLVQPGGSLRLSCAASGFSFTSYAMTWVRQAPGKGLEWVSGISGGGAATFYADSVKGRFTISRDNSKNTLYLQMNSLRAEDTAVYYCARQSQYVGGFDYWGQGTLVTVSSASSGGSTSGSGKPGSGEGSSGSARQSVLTQPPSVSGAPGQRVTISCTGSSSNIGAGYGVHWYQQLPGTAPKLLIYGNTNRPSGVPDRFSGFKSGTSASLAITGLQAEDEADYYCQSYDSSLSGWVFGGGTKLTVLG
B15: the Kd in experiment [3] came to 18.1 nM; in experiment [2], 8.17 nM. Moreover, in [4], the IC50 amounted to 4.44 nM.

B16: UC1.2 (S4-2 1B5-1A5) scFv (scFv)
scFv: B15 scFv with G133D, I172F, Y194H
For B16, the “fold higher affinity (vs parental scFv)” value in experiment [5] was 10 fold. Also, the Kd in experiment [9] was 0.57 nM.

B17: UC1.3 (S4-2 1B5-1B3) scFv (scFv)
scFv: B15 scFv with G54D, G133D, I172F, Y194H
Turning to B17, the “fold higher affinity (vs parental scFv)” value in experiment [5] was found to be 10 fold. For the same molecule, the Kd in experiment [9] turned out to be 0.64 nM.

B18: UC5 (8-2A10) scFv (scFv)
scFv: QVQLLESGGGLVQPGGSLRLSCAASGFTFNTYAMTWVRQAPGKGLEWVSAISDSGGDTFYADSVKGRFTISRDNSKNTLYLQMNSLRAEDTAVYYCARDGTYAARFDYWGQGTLVTVSSASSGGSTSGSGKPGSGEGSSGSARDIQMTQSPSSLSASVGDRVTITCQASQDISNYLNWYQQKPGKAPKLLIYDASTLETGVPSRFSGSGSGTDFTFTISSLQPEDIATYYCQQSDSFPITFGQGTKVEIKR
notes: Soluble scFv
In [1], B18 gave an IC50 of 746 nM. The Kd in [2] was found to be 14.5 nM.
